The results in this text go back to patent publication US7812117B2, “Vasostatin as marrow protectant” (The United States of America as represented by the …, priority 1998, dated 2010).

Where two headings read alike, the source gives them in different places.

One data set has as its system bone marrow cells. Here is the method:
FIG. 2 is set of bar graphs showing of the effects of vaso on cytoxan-induced bone marrow toxicity evaluated by bone marrow cell counting. Bone marrow cells obtained from the femurs of mice treated with cytoxan alone or with vaso were counted. FIG. 2A is a bar graph of bone marrow cell counts 5 days after the injection of cytoxan (1 or 2 mg/mouse) alone or with vaso (300 μg/mouse/day). FIG. 2B is a bar graph of the bone marrow cell counts on days 3 and 5 after treatment with cytoxan (2 mg/mouse) alone or with vaso ([…]).
(§1) C57BL6J mice (7 weeks of age) were first treated for 7 days daily with either buffer (100 μl s.c.) or vaso (300 μg/mouse in 100 μl of buffer s.c.). On day 8, groups of mice (n=6) pretreated with either buffer or vaso were injected with cyclophosphamide (1.0 or 2.0 mg/mouse) and continued on daily inoculations of buffer (100 μl s.c.) or vaso (300 μg/mouse in 100 μl of buffer s.c.). Additional control mice were treated with only buffer or vaso for 5 additional days. On days 3 and 5 after cyclophosphamide injection, ½ of the mice were killed for evaluation of the bone marrow and peripheral blood.

In data set [1] the test system is peripheral blood white cells. Here is the method: Mice (C57BL/B6, females, 7.5 weeks old) were treated for 1 week with daily inoculations of vaso (300 μg/mouse) or buffer alone. On day 8, the mice received cytoxan (1 or 2 mg/mouse) and continued daily inoculation with buffer or vaso. Peripheral blood white cell counts were measured on day 5 after administration of cytoxan.
as §1

Data set [2] deals with human Burkitt lymphoma cell line CA46. The data set can be described thus: CA46 tumor size and weight in irradiated BALB/c nu/nu mice treated with MBP or MBP-vaso. Conditions: 400 rad, CA46 s.c.; MBP 40 μg/mouse/day or MBP-vaso 60 μg/mouse/day s.c. The data set is classed as in vivo. Here is the method: (§2) To examine this further, 7 week old BALB/c nu/nu mice were first irradiated with 400 rad. After 24 hr, the mice were incoculated s.c. with the human Burkitt lymphoma cell line CA46. One group of mice (n=12) was treated s.c. with the control protein maltose binding protein (MBP, 40 μg/mouse/day), whereas another group (n=12) was treated s.c. with MBP-vaso (60 μg/mouse/day). Some of the mice from each group were killed on day 15, whereas the other mice were kept for up to 2.5 months.

For data set [3], the system named is bone marrow hematopoietic cells. The data set can be described thus: Radiation-induced toxicity in irradiated tumor-bearing BALB/c nu/nu mice (appearance, femural bone marrow histology). The data set is classed as in vivo, mouse. Here is the method:
This healthier appearance was due, in part, to the larger weight of mice treated with vaso compared to the controls.
as §2

In data set [4] the test system is murine Lin- bone marrow cells enriched with hematopoietic progenitors. The data set can be described thus: Proliferation of lineage-negative bone marrow population enriched for hematopoietic progenitors. The format is cell-based, mouse. The procedure: FIG. 11 is a set of two bar graphs showing the proliferative responses of unseparated (FIG. 11A) and purified (FIG. 11B) bone marrow cell populations in response to vaso. Bone marrow cell populations, obtained from the femural cavities of C57BL/6NCR mice (9 weeks of age) were either used as such or were further purified by negative selection as lineage negative (CD5, CD45R, CD11b, Gr-1 and TER119) cells by magnetic cell depletion. Both cell populations were incubated (0.5×10^6 cells/ml) in culture medium supplemented with IL-3 (20 ng/ml) with or without vaso (10 μg/ml). Cell proliferation was measured by ^3H thymidine incorporation during the final 22 hr of a 4, 5 or 6-day (D) culture. Data shown reflects the mean of triplicate cultures.
The examples described above utilized unpurified populations of murine bone marrow cells derived from the femur. To characterize the cell or cells within the bone marrow cell population that are targets of stimulation by vaso, cell separation experiments were performed. […]
The effects of vaso were tested on this cell population that is enriched with murine hematopoietic cells, and compared with unseparated bone marrow populations. […] On days 4 and 5, cell proliferation was measured. […]

In a further data set the test system is murine bone marrow cells. Nature of the data set: Murine bone marrow cell proliferation in vitro ([3H] thymidine incorporation).
The mark [5] stands for this setting: vaso 10 μg/ml in the presence of growth factors.

Consider `O=P1(N(CCCl)CCCl)NCCCO1` (stereo not shown) [cyclophosphamide, reference compound], for which the “bone marrow cellularity 5 days after cyclophosphamide” value in the data set with bone marrow cells (cyclophosphamide 2 mg/mouse alone, vs control untreated mice) is “clear reduction in cellularity”. Further, the “marrow cell counts 5 days after cyclophosphamide” value in the data set on bone marrow cells (cyclophosphamide 1.0 or 2.0 mg/mouse, alone) is “reduced significantly marrow cell counts”. Besides, the “peripheral blood white cell counts on day 5 after cyclophosphamide” value in data set [1] (cyclophosphamide 2.0 or 1.0 mg/mouse alone, vs buffer or vaso alone controls) was “significantly reduced”.

B1: vaso: N-terminal domain of calreticulin (amino acids 1-180, SEQ ID NO:3); given as fusion protein with maltose binding protein, MBP-vaso (protein)
chain: EPAVYFKEQFLDGDGWTSRWIESKHKSDFGKFVLSSGKFYGDEEKDKGLQTSQDARFYALSASFEPFSNKGQTLVVQFTVKHEQNIDCGGGYVKLFPNSLDQTDMHGDSEYNIMFGPDICGPGTKKVHVIFNYKGKNVLINKDIRCKDDEFTHLYTLIVRPDNTYEVKIDNSQVESGSLE
modifications: Vasostatin
On to B1, for which the “bone marrow cellularity 5 days after cyclophosphamide” value in the data set with bone marrow cells (cyclophosphamide 2 mg/mouse in conjunction with vasostatin) was “indistinguishable from that of control mice”. Moreover, the “nadir in bone marrow counts on day 3 after cyclophosphamide” value in the data set with bone marrow cells (cyclophosphamide 2 mg/mouse with vaso 300 μg/mouse/day) is “reduced the severity of this nadir”. The “bone marrow cell counts 5 days after cyclophosphamide” value in the data set with bone marrow cells (cyclophosphamide 1.0 or 2.0 mg/mouse together with vaso 300 μg/mouse/day s.c.) is on record as “the reduction in bone marrow cell counts was minimal”. In data set [1] (cyclophosphamide 2.0 or 1.0 mg/mouse with vaso 300 μg/mouse/day), the “reduction in peripheral blood white cell counts caused by cyclophosphamide, day 5” value is “alleviated”. For the same molecule, in data set [2], the tumor size was 0.67 cm^2 and the tumor weight came to 0.22 g. In addition, the “appearance of irradiated mice” value in data set [3] (BALB/c nu/nu mice, 400-450 rad, injected s.c. with human tumor cell lines, vs buffer control) was “appeared healthier”. Further, in data set [3] (MBP 40 μg/mouse/day or MBP-vaso 60 μg/mouse/day s.c. after irradiation), the “femural bone marrow histology after 400 rad total body irradiation” value is listed as “can protect the hematopoietic tissue from radiation-induced toxicity”. The “cell growth of murine bone marrow cells enriched for hematopoietic cells by negative selection” value in data set [4] (IL-3 alone or IL-3 together with IL-6 and Stem Cell Factor) is given as “similarly stimulated cell growth”. Besides, the “increase in cell proliferation on day 5” value in data set [4] (enriched marrow, vaso 10 μg/ml, IL-3 20 ng/ml) is reported as 3.3 fold. In addition, the “murine bone marrow cell proliferation with or without cisplatinum” value in the data set on murine bone marrow cells (Vaso 10 μg/ml, IL-3 (30 μg/ml), cisplatinum between 5 and 0.02 nM) is recorded as “enhanced murine bone marrow cell proliferation”. The “growth of murine hematopoietic cells after 5 or 6 days of culture” value with murine bone marrow cells (all used at 10 μg/ml, IL-3 20 ng/ml) is recorded as “stimulated the growth”. For the same molecule, in the data set on murine bone marrow cells (day 5, vaso 12.5-50 μg/ml added to IL-3 plus IL-6 plus Stem Cell Factor), the “bone marrow cell proliferation vs growth factors alone” value was 21-54 fold. For the same molecule, in the data set on murine bone marrow cells (mafosfamide added after 3 days of culture), the “mafosfamide concentrations at which growth stimulatory effect of vaso was appreciable” value is at most 8 µg/mL. Besides, in the data set on murine bone marrow cells (unseparated marrow, vaso 10 μg/ml, IL-3 20 ng/ml), the “increase in cell proliferation on day 5” value is reported as 3.4 fold. For the same molecule, in the data set with murine bone marrow cells (vaso 10 μg/ml in medium alone, no growth factors), the “direct stimulation of bone marrow cell proliferation” value is given as “failed to directly stimulate”. Also, in the data set on murine bone marrow cells (setting [5]), the “promotion of bone marrow cell proliferation on day 5” value is recorded as 39 fold and the “promotion of bone marrow cell proliferation on day 6” value is reported as 17 fold. Also, in the data set on murine bone marrow cells (vaso 10 μg/ml in the presence of growth factors (IL-3, IL-6, stem cell factor)), the “promotion of bone marrow cell proliferation on day 4” value is listed as 6.5 fold. Besides, in the data set with murine bone marrow cells (vaso 10 μg/ml, absence of exogenously added growth factors, 7 day culture), the “stimulation of background cpm” value is recorded as “approximately 2 fold”. Also, in the data set on murine bone marrow cells (vaso 10 μg/ml, Etoposide 77 nM, growth factors), the “promotion of bone marrow cell proliferation in the presence of Etoposide” value is given as “to the same or greater degree than in the absence of Etoposide”. Also, the “increase of IL-3-induced bone marrow proliferation in the presence of Etoposide” value in the data set with murine bone marrow cells (vaso 10 μg/ml, Etoposide 385-15.4 nM, day 5) is “evident even in the presence of Etoposide”. For the same molecule, in the data set on murine bone marrow cells (vaso 10 μg/ml, IL-3 20 ng/ml), the “bone marrow cell proliferation induced by IL-3, day 5” value is “enhanced bone marrow cell proliferation” and the “enhancement of IL-3 induced response on day 4” value was “approximately 3 fold”. In the data set on murine bone marrow cells (vaso 10 μg/ml, IL-3 or combination of IL-3, IL-6 and Stem Cell Factor), the “enhancement of proliferative response on day 5 or 6” value is on record as 7-16 fold. Also, the “proliferative response on day 3” value in the data set on murine bone marrow cells (vaso 10 μg/ml, combination of IL-3, IL-6 and Stem Cell Factor) is “enhanced the response induced by the combination of IL-3, IL-6 and Stem Cell Factor slightly”. In the data set on murine bone marrow cells (vaso 12.5 μg/ml, growth factors, 6 days culture), the “proliferation of bone marrow cells exposed to mafosfamide” value is “markedly enhanced”. Moreover, in the data set with murine bone marrow cells (vaso 0.25-10 μg/ml, methotrexate 100 nM and growth factors, 7 day culture), the “bone marrow cell proliferation in the presence of methotrexate” value was “dose-dependently stimulated”.
